Data as given in PMC5477506.

Legend:
[1] = target: CpTRIC, prokaryotic TRIC homologue from the bacterium Colwellia psychrerythraea (Colwellia psychrerythraea 34H); assay: SEC-MALS; analytical size-exclusion chromatography in detergent-containing mobile phases; multi-angle light scattering with refractive index detection used to analyse the oligomeric state
[2] = target: CpTRIC, prokaryotic TRIC homologue from the bacterium Colwellia psychrerythraea (Colwellia psychrerythraea 34H); assay: cross-linking; purified protein in DDM (around 1 mg/ml in 30 ul) with glutaraldehyde (0, 0.00005%, 0.0001%, 0.0005%, 0.001%) at room temperature for 8 h; quenched with 50 mM Tris-Cl pH 8.0; 12% SDS-PAGE
[3] = target: SaTRIC, prokaryotic TRIC homologue from the archaeon Sulfolobus acidocaldarius, wild type (Sulfolobus acidocaldarius); assay: SEC-MALS; analytical size-exclusion chromatography in detergent-containing mobile phases; multi-angle light scattering with refractive index detection used to analyse the oligomeric state
[4] = target: SaTRIC, prokaryotic TRIC homologue from the archaeon Sulfolobus acidocaldarius, wild type (Sulfolobus acidocaldarius); assay: crystal structure; SaTRIC purified in DM, crystallised in lipid cubic phase (monoolein); lattices P6(3), P321 and R32, one molecule per asymmetric unit, trimer about the crystallographic three-fold axis
[5] = target: SaTRIC, prokaryotic TRIC homologue from the archaeon Sulfolobus acidocaldarius, wild type (Sulfolobus acidocaldarius); assay: cross-linking; purified protein in DDM (around 1 mg/ml in 30 ul) with glutaraldehyde (0, 0.00005%, 0.0001%, 0.0005%, 0.001%) at room temperature for 8 h; quenched with 50 mM Tris-Cl pH 8.0; 12% SDS-PAGE
[6] = target: Se-Met CpTRIC (Colwellia psychrerythraea 34H); assay: crystal structure; Se-Met CpTRIC in octylmaltoside, crystallised from detergent micelles (38% PEG400, 0.1 M NaCl, 0.1 M CdCl2, 0.1 M Tris-HCl pH 8.5); space group R32, one protomer per asymmetric unit
[7] = target: Se-Met SaTRIC mutant (L148M) (Sulfolobus acidocaldarius); assay: crystal structure; SaTRIC purified in DM, crystallised in lipid cubic phase (monoolein); lattices P6(3), P321 and R32, one molecule per asymmetric unit, trimer about the crystallographic three-fold axis

CpTRIC, prokaryotic TRIC homologue from the bacterium Colwellia psychrerythraea (natural protein)
stoichiometry N [1]: 3
stoichiometry N [2]: 3

SaTRIC, prokaryotic TRIC homologue from the archaeon Sulfolobus acidocaldarius, wild type (natural protein)
stoichiometry N [3]: 3
stoichiometry N [4]: 3
stoichiometry N [5]: 3

Se-Met CpTRIC (natural protein)
stoichiometry N [6]: 3

Se-Met SaTRIC mutant (L148M) (natural protein)
stoichiometry N [7]: 3
